Source: US8236753 (BRIGHAM AND WOMEN S HOSPITAL, dated 2012)
Numbering of substitutions follows the chain as printed. Names may count otherwise.

B1: wild-type RAP-D3 (third domain of the receptor-associated protein, residues 216-323) (ligand, human)
chain: GAEFEEPRVIDLWDLAQSANLTDKELEAFREELKHFEAKIEKHNHYQKQLEIAHEKLRHAESVGDGERVSRSREKHALLEGRTKELGYTVKKHLQDLSGRISRARHNEL
notes: range 216-323; Expressed in E. coli as a GST fusion, released by TEV protease, monomer isolated by size exclusion; The range 216-323 counts on the mature RAP protein, not on the precursor; also called RAP-D3 WT; RAPD3_WT
B2: RAP-D3 [H268F/H290F] (ligand)
chain: B1 chain with H54F, H76F
notes: also called RAPD3_H268, 290F
B3: RAP-D3 [H257F/H259F] (ligand)
chain: B1 chain with H43F, H45F
notes: The entry is printed as ENLYFQG followed by the 108 residues; also called RAPD3_H257, 259F; RAP-D3 H257,259F
B4: LA3-4 module pair of the LDLR (LDL receptor type-A repeats 3 and 4) (receptor)
chain: not shown
notes: domain: LA3-4 module pair; also called two-repeat fragment of the LDL receptor; LA3-4 repeat pair
B5: RAP-D3-quad (RAP-D3 H257F/H259F/H268F/H290F) (ligand)
chain: B1 chain with H43F, H45F, H54F, H76F
notes: also called RAP-D3 Quad H:F; RAPD3_H257, 259, 268, 290F

Columns and labels:
[1] = target: B4; assay: ITC, RAP-D3 titrated into LA3-4, 20 mM HEPES pH 7.3, 5 mM CaCl2, 25 C, 50 mM NaCl; design: ΔH: unit not given here
Protocol: (§1) RAP-D3 titrations were performed in 20 mM HEPES, pH 7.3, 50-150 mM NaCl, 5 mM CaCl_2 at 25° C. using a VP-ITC calorimeter (MicroCal Inc., Northampton, Mass.) in a 1.3 mL reaction vessel. A RAP-D3 stock solution (132-178 μM) was added in 6-8 μL increments to LA3-4 (20-25 μM). Calorim-

[2] = target: B4; assay: ITC, RAP-D3 titrated into LA3-4, 20 mM HEPES pH 7.3, 5 mM CaCl2, 25 C, 150 mM NaCl; design: ΔH: unit not given here
Protocol: as §1

[3] = target: B4; assay: ITC at neutral pH
Protocol: as §1

[4] = target: B1; assay: ITC, RAP-D3 titrated into LA3-4, 20 mM HEPES pH 7.3, 5 mM CaCl2, 25 C, 50 mM NaCl; design: ΔH: unit not given here
Protocol: as §1

[5] = target: B1; assay: ITC, RAP-D3 titrated into LA3-4, 20 mM HEPES pH 7.3, 5 mM CaCl2, 25 C, 150 mM NaCl; design: ΔH: unit not given here
Protocol: as §1

[6] = target: B4; assay: ITC, RAP-D3 titrated into LA3-4, 20 mM HEPES pH 7.3, 5 mM CaCl2, 25 C, 100 mM NaCl; 100 mM NaCl
Protocol: as §1

[7] = target: B4; assay: ITC, RAP-D3 titrated into LA3-4, 20 mM HEPES pH 7.3, 5 mM CaCl2, 25 C, 100 mM NaCl; design: ΔH: unit not given here
Protocol: as §1

ΔH [1]	Kd [1]	fold difference in affinity against wild-type RAP-D3 [3]	Binder	other results
-9.1			B1	ΔH [2]: -6.8
-9.3	1160 nM	≤ 2 fold	B2	
-8.6	850 nM	≤ 2 fold	B3	
			B4	Kd [4]: 480 nM; Kd [5]: 1170 nM
		≤ 2 fold	B5	Ka [6]: 1.2e+06 M⁻¹; Kd [7]: 850 nM; ΔH [7]: -5.4
